Data from publication PMC4933373, “Conformational Stability of the NH2-Terminal Propeptide of the Precursor of Pulmonary Surfactant Protein SP-B” (PLoS ONE, 2016).

What was measured:
[1] = molecular target: the molecule itself; test: differential scanning calorimetry; 0.3 mg/mL SP-BN in 5 mM Tris-HCl pH 7, 500 mM NaCl, 20-120°C at 60°C/h; second transition fitted to the Non Two-State model with two peaks; ratio of van't Hoff to calorimetric enthalpy
[2] = molecular target: the molecule itself; test: AUC; sedimentation velocity, 0.15 mg/mL SP-BN in 5 mM Tris-HCl pH 7.0, 500 mM NaCl, 20°C, 48,000 rpm; 35% of the loaded protein detected
[3] = molecular target: the molecule itself; test: AUC; sedimentation velocity, 0.15 mg/mL SP-BN in 5 mM Tris-HCl pH 7.0, 150 mM NaCl, 20°C, 48,000 rpm
[4] = molecular target: the molecule itself; test: cross-linking; 0.26 mg/mL SP-BN in 20 mM Tris-HCl, 500 mM NaCl pH 7.0, 0.08% (v/v) glutaraldehyde for 20 s and 120 s at 20°C; SDS-PAGE and immunoblot

B1: NH2-terminal propeptide of the precursor of pulmonary surfactant protein SP-B (recombinant human SP-BN) (domain or fragment, UniProt P07988 24-200, looked up)
chain: AWTTSSLACAQGPEFWCQSLEQALQCRALGHCLQEVWGHVGADDLCQECEDIVHILNKMAKEAIFQDTMRKFLEQECNVLPLKLLMPQCNQVLDDYFPLVIDYFQNQTDSNGICMHLGLCKSRQPEPEQEPGMSDPLPKPLRDPLPDPLLDKLVLPVLPGALQARPGPHTQDLSEQQ
notes: 177 amino acids, 19,902 Da from the composition; Not glycosylated (made in bacteria); also called N-terminal propeptide of proSP-B; the propeptide; source: E. coli, expressed as fusion MBP-SP-BN, purified after cleaving the fusion with factor Xa
stoichiometry N [1]: ~4 | stoichiometry N [2]: 6 | stoichiometry N [3]: 2 | stoichiometry N [4]: 3
